In patent publication US20200222518A1 (BOARD OF SUPERVISORS OF LOUISIANA STATE UNIVERSITY AND …, published 2020):

T1: Fba peptide (Candida albicans)
T1 construct: Synthetic 14-mer (GenScript) from the N-terminus of C. albicans fructose-bisphosphate aldolase
T1 peptide: YGKDVKDLFDYAQEC

T2: Met6 peptide (Candida albicans)
T2 construct: Synthetic 14-mer (GenScript) from the N-terminus of the C. albicans Met6 cell wall protein
T2 peptide: PRIGGQRELKKITEC

B1: 2D5F7 (antibody, V domains shown)
VH: QVQLQQSAAELARPGASVKMSCKASGYTFSSYTMHWVKQRPGQGLEWIGYINPSSGYTDYNQKFKDKTTLTADKSSSTAYMQLSSLTSEDSAVYYCARLYDNYDYYAMDYWGQGTSVTVSS
VL: DIVMSQSPSSLAVSAGEKVTMSCKSSQSLLNSRIRKNYLAWYQQKPGQSPKLLIYWASTRESGVPDRFTGSGSGTDFTLTISSVQADDLAVYYCKQSYNLLTFGAGTKLELK
notes: Mouse hybridoma mAb, IgG2b; The entries are 140 AA and 132 AA and their DNA starts with ATG, so they may include the leader peptide; The limits are printed only as drawings and no residues were cut
B2: 2B10C1 (antibody, V domains shown)
VH: QVQLQQPGAEVVRPGASVKVSCKASGYTVSSYWMSWVKQRPEQGLEWIGRIDPYDSETHYNQKFKDKAILTVDKSSSTAYMQLSSLTSEDSAVYYCARTAASFDYWGQGTTLTVSS
VL: DVVMTQTPLSLPVSLGDQASISCRSSQSLVHSNGNSYLHWYLQKPGQSPKLLIYKVSNRFSGVPDRFSGSGSGTDFTLNISRVEAEDLGVYFCSQSTHVPFTFGSGTKLEIK
notes: Mouse hybridoma mAb, IgG1; The entries are 135 AA and 131 AA and their DNA starts with ATG, so they may include the leader peptide; The limits are printed only as drawings and no residues were cut; also called 2810C1

Legend:
Fba peptide = molecular target: T1, Fba peptide; assay: specificity listed in table; hybridomas screened by anti-peptide ELISA
Met6 peptide = molecular target: T2, Met6 peptide; assay: as above

Binder | binding result (Fba peptide) | binding result (Met6 peptide)
B1 | binds | 
B2 |  | binds
